Tests used:
[1] = target: [RKH2-AAA]2 single-chain ClpX^ΔN pseudohexamer (Escherichia coli) (UniProt P0A6H1)
[2] = target: E. coli ClpP (residues 1-193 of mature ClpP), tag removed, used for cryo-EM (Escherichia coli); assay: cryo-EM structure; ClpX^∆N pseudohexamer 4 µM and ClpP14 1.8 µM (2 µM in the results) in EM buffer (20 mM HEPES, pH 7.5, 100 mM KCl, 25 mM MgCl2, 5 mM ATPγS), 5 min at 25°C before vitrification; doubly capped complexes analysed

KM for steady-state degradation of ^CP7GFP-ssrA, against the parent pseudohexamer [1] [fold]	stoichiometry N [2]	Substance
3	–	^cp7GFP-ssrA
–	14	E. coli ClpP (residues 1-193 of mature ClpP), tag removed, used for cryo-EM (enzyme)

— paper PMC7112951
